Results reported in patent US9333268B2, “Methods of treatment with arginine deiminase” (Polaris Group, priority 2012, dated 2016).

Tests used:
Caki-1 xenografts = assay: Caki-1 renal cell carcinoma xenografts in BALB/c-nude mice; format: in vivo; conditions: intramuscular
Procedure: The activity of ADI-PEG 20 was assessed in mice bearing Caki-1 (ATCC No. HTB-46™) xenografts. Renal cell carcinoma Caki-1 xenografts were established in female BALB/c-nude mice, 3-4 weeks of age with a body weight of 20 g (SLAC, Shanghai, China). To establish the tumors, 5×10^6 cells in media were mixed 1:1 with Matrigel High Concentration (BD Biosciences) and injected subcutaneously in the abdominal area of the mice. Tumor growth was regularly measured and tumor volume calculated using the formula (TV=(length×width^2)/2). When tumors reached an approximate volume of 125 mm^3, ADI-PEG20 was administered at doses level of 160, 320 and 640 IU/m^2 once every week for four weeks by intramuscular injection. Each study group had 9 mice. Mice were euthanized when tumors reached an approximate volume of 1100 mm^3. […] More than 80% tumor inhibition was achieved when 640 IU/m^2 was used.
In an additional experiment, the activity of ADI-PEG 20 as either a single agent or in combination with rapamycin was assessed in mice bearing Caki-1 xenograft. Renal cell carcinoma xenografts were established in female BALB/c-nude mice, 3-4 weeks of age weighing about 20 g (SLAC, Shanghai, China). […] Tumor growth was regularly measured and tumor volume calculated using the formula (TV=(length×width^2)/2). […]

SK-LC-13 xenografts = assay: Large SK-LC-13 SCLC xenografts in BALB/c-nude mice; format: in vivo
Procedure: The activity of ADI-PEG 20 was also assessed in mice bearing ASS-positive NCI-H69 SCLC xenografts. Small cell lung cancer xenografts were established in female BALB/c-nude mice, 3-4 weeks of age weighing ˜20 g (Charles River Labs, Wilmington, Mass., USA). To establish the tumors, 10×10^6 cells in media were mixed 1:1 with Matrigel High Concentration (BD Biosciences) and injected subcutaneously in the abdominal area of the mice. Tumor growth was regularly measured and tumor volume calculated using the formula (TV=(length×width^2)/2). All animal studies were approved by the MSKCC Institutional Animal Care and Use Committee. Mice were euthanized when tumors reached an approximate volume of 1,000 mm^3.
(§1) The anti-tumor efficacy of ADI-PEG 20 was simultaneously assessed in mice bearing either moderate or large SK-LC-13 SCLC xenografts. In the first study, treatment was initiated once tumors had reached an average size of 125 mm^3. In the large xenograft study, treatment was initiated once tumors had reached an average size of 500 mm^3. Arginine deiminase-PEG20 was administered at doses of 1, 2 and 5 IU per animal once every 5 days for 20 days (five doses). To assess the effect of sustained dosing, further groups (n=5) at all dose levels received continued administration of ADI-PEG 20 every 5 days until tumors progressed to the 1,000 mm^3 size limit. Additionally, the efficacy of ADI-PEG 20 was assessed in mice bearing ASS-positive NCI-H69 xenografts. Here, mice received five doses of 2 IU ADI-PEG 20 for 20 days once tumor had reached an average size of 150 mm^3. Arginine deiminase-PEG20 was administered by intraperitoneal injection in all studies. The specific activity of ADI-PEG 20 used in these studies is 9 IU mg^−1 of protein. Thus, 1 IU of ADI-PEG 20 per 20 g mouse is equivalent to 160 IU m^−2.
Efficacy of ADI-PEG 20 treatment in vivo was assessed by comparing means of control and treatment groups using unpaired two-tailed t-tests at the termination of control groups using GraphPad Prism (Version 5.0, GraphPad Software Inc., La Jolla, Calif., USA).

[1] = test system: non-adherent ASS-positive cells; assay: Total protein proliferation assay, non-adherent cells; format: cell-based; conditions: 0-10 mIU ml^−1, 120 h
Procedure: (§2) To assess the activity of ADI-PEG 20 in non-adherent cells, cells were plated at a density of 1×10^5 cells per well in a tissue culture 24-well plate. Additional media was then added containing ADI-PEG 20 for final concentrations ranging from 0-10 mIU ml^−1. To measure changes in proliferation following incubation with ADI-PEG 20 for 120 h, cells were collected, washed and lysed in RIPA buffer. Total protein for each treatment was then determined using the BSA protein assay as a measure of total cell number. All treatments were performed at least in triplicate.

[2] = test system: non-adherent ASS-deficient cells; assay: as above; format: cell-based; conditions: 0-10 mIU ml^−1, 120 h
Procedure: as §2

ASS-negative AML lines = assay: Viability of AML cell lines treated with ADI-PEG 20; format: cell-based
Procedure: (§3) In this example, it was determined whether ASS negativity would predict for the efficacy of pegylated arginine deiminase (ADI-PEG 20) using AML cell lines and primary AML samples. A lack of ASS protein was identified in three of seven leukemic cell lines (K562, Kasumi and KG-1) and in all nine samples from patients with cytogenetically normal and abnormal karotype AML. Methylation of the ASS promoter correlated with reduced levels of ASS mRNA and absence of ASS expression.
(§4) Primary ASS-negative AML samples with good engraftment in NOD/SCID mice have been identified and studies of the efficacy of ADI-PEG 20 using this primary AML xenograft model have begun. Based on the results described herein and the potential efficacy with low toxicity of arginine deprivation in humans, a phase II trial of ADI-PEG 20 has been planned in patients with relapsed AML.

[3] = test system: ASS-positive control lines, Fujioka and U937; assay: as above; format: cell-based
Procedure: as §3, §4

[4] = test system: ASS low expressing osteosarcoma cell line MNNG; assay: Xenograft of osteosarcoma cell line MNNG in nude mice; format: in vivo; conditions: compared to PBS treated controls
[5] = Specific activity of ADI-PEG 20; format: biochemical
Procedure: as §1

B1: ADI-PEG 20: arginine deiminase (ADI) formulated with PEG of 20,000 m.w. (protein)
chain: MSVFDSKFNGIHVYSEIGELETVLVHEPGREIDYITPARLDELLFSAILESHDARKEHQSFVKIMKDRGINVVELTDLVAETYDLASKAAKEEFIETFLEETVPVLTEANKEAVRAFLLSKPTHEMVEFMMSGITKYELGVESENELIVDPMPNLYFTRDPFASVGNGVTIHFMRYIVRRRETLFARFVFRNHPKLVKTPWYYDPAMKMSIEGGDVFIYNNETLVVGVSERTDLDTITLLAKNIKANKEVEFKRIVAINVPKWTNLMHLDTWLTMLDKNKFLYSPIANDVFKFWDYDLVNGGAEPQPQLNGLPLDKLLASIINKEPVLIPIGGAGATEMEIARETNFDGTNYLAIKPGLVIGYDRNEKTNAALKAAGITVLPFHGNQLSLGMGNARCMSMPLSRKDVKW
tumor growth (Caki-1 xenografts; 160, 320 and 640 IU/m^2 weekly for four weeks): inhibited tumor growth in a dose dependent manner | tumor inhibition (Caki-1 xenografts; 640 IU/m^2 weekly for four weeks): More than 80% | tumor growth (SK-LC-13 xenografts; 1, 2 and 5 IU, tumors 473.4±161.0 mm^3 at start): dose-dependent inhibition of tumor growth | tumor volume relative to control mice (SK-LC-13 xenografts; 1 IU, continued treatment, day 32 (P=0.007)): significantly reduce the tumor volume | tumor volume, continued relative to short-course treatment (SK-LC-13 xenografts; 1 IU, day 39): moderately significant (P=0.26) reduction in tumor volume | tumor size relative to control mice (SK-LC-13 xenografts; 1 IU, short-course, day 32 (P=0.07)): did not result in a statistical significant reduction | tumor volume relative to untreated controls (SK-LC-13 xenografts; 2 IU, continued (P=0.0007)): significant reduction of tumor volume | tumor volume relative to untreated controls (SK-LC-13 xenografts; 2 IU, short (P=0.004)): significant reduction of tumor volume | responses, continued dosing relative to short-course (SK-LC-13 xenografts; 2 and 5 IU): did not significantly improve responses | tumor volume relative to untreated controls (SK-LC-13 xenografts; 5 IU, continued (P=0.0001)): significant reduction of tumor volume | tumor volume relative to untreated controls (SK-LC-13 xenografts; 5 IU, short (P=0.0003)): significant reduction of tumor volume | proliferation [1]: almost total resistance | proliferation [2]: relative decrease in proliferation | viability (ASS-negative AML lines): reduced the viability | viability (response to drug-induced arginine deprivation) [3]: resistant | tumor growth rate [4]: significantly slower tumor growth rate | specific activity [5]: 9 IU mg^−1 of protein
